In patent publication US20230086069A1:

Target: cynomolgus CD19 (cynomolgus)
Test: BLI (Octet); cynomolgus CD19

Kd: 3.6 nM
B1: SI-63C2 (recombinant mAb with H1 humanized anti-CD19 variable sequence) (antibody, V domains shown)
VH: QVTLKESGPGLVQPGQTLRLTCAFSGFSLSTSGMGVGWIRQPPGKGLEWLAHIWWDDDKRYNPALKSRLTISKDTSKNQVYLQMNSLDAEDTAVYYCARMELWSYYFDYWGQGTLVTVSS
VL: ENVLTQSPASLSASPGERVTITCSASSSVSYMHWYQQKPGQAPKLWIYDTSKLASGVPSRFSGSGSGNDHTLTISSMEPEDFATYYCFQGSVYPFTFGQGTKLEIKR
